Measurements published in patent publication US7329737 (DYAX, dated 2008).

Molecular target: T1, hK1 (human tissue kallikrein 1), recombinant (human, UniProt P06870 25-262)
T1 construct: Expressed in P. pastoris from KLK1 cDNA and purified; enzymatically active; also called KLK1; Recombinant (Pichia) Kallikrein
Experiment: SPR

| Kd | koff | kon | Binder |
| --- | --- | --- | --- |
| 25.6 nM | 0.0035 s⁻¹ | 137000 M⁻¹ s⁻¹ | M0132-C01 (Fab, V domains shown) VH: EVQLLESGGGLVQPGGSLRLSCAASGFTFSRYLMWWVRQAPGKGLEWVSVIGPSGGWTRYADSVKGRFTISRDNSKNTLYLQMNSLRAEDTAVYYCARHPGDYWGQGTLVTVSS VL: AQSALTQPRSVSGSPGQSVTISCTGTGSNIDGYNYVSWYQQYPGNAPKLIIYDVGKRPSGVPNRFSGSKSGNTASLTISGLQAEDEADYYCCSYAGSYSYVFGVGTKVTVLG |
| 29.7 nM | 0.00209 s⁻¹ | 70300 M⁻¹ s⁻¹ | M0131-G06 (Fab, V domains shown) VH: EVQLLESGGGLVQPGGSLRLSCAASGFTFSSYAMTWVRQAPGKGLEWVSSISSSGGDTAYADSVKGRFTISRDNSKNTLYLQMNSLRAEDTAVYYCATERHYIWGSYRYSWFDPWGQGTLVTVSS VL: AQYELTQAPSASGTPGQRVTISCSGSRSNIGTNPVNWYQHVPGTAPKLLILVNNQRPSGVPDRFSGSKSGASASLAISGLQSEDEAEYYCATWDGSLNGPVFGGGTKLTVLR |
| 20.8 nM | 0.00427 s⁻¹ | 205000 M⁻¹ s⁻¹ | M0122-D01 (Fab, V domains shown) VH: EVQLLESGGGLVQPGGSLRLSCAASGFTFSHYIMHWVRQAPGKGLEWVSGIYPSGGSTKYADSVKGRFTISRDNSKNTLYLQMNSLRAEDTAVYYCARALVGALDYWGQGTLVTVSS VL: DIQMTQSPSSVSASVGDRVTITCRASQDIRTWLAWYQQKSGKAPKLLIYSSSSLQSGISSRFSGSGSGTDFTLTISNLQPEDSAIYYCQQATTFPWTFGQGTKVEIKR |
| 23 nM | 0.415 s⁻¹ | 1.8e+07 M⁻¹ s⁻¹ | M0126-H09 (Fab, V domains shown) VH: EVQLLESGGGLVQPGGSLRLSCAASGFTFSNYTMMWVRQAPGKGLEWVSGIYPSGGQTAYADSVKGRFTISRDNSKNTLYLQMNSLRAEDTAVYYCARGGSWYAFDIWGQGTMVTVSS VL: AQSVLTQDPAVSVALGQTVRFTCQGDSLRNYHPSWYQQKPRQAPVLVMFGRNNRPSGIPDRFSGSTSGGTASLTITATQADDEADYFCSSRDGSGNFLFGGGTKLTVLG |
| 20.3 nM | 0.0012 s⁻¹ | 59100 M⁻¹ s⁻¹ | M0124-H10 (Fab, V domains shown) VH: EVQLLESGGGLVQPGGSLRLSCAASGFTFSNYFMNWVRQAPGKGLEWVSSIGSSGGYTRYADSVKGRFTISRDNSKNTLYLQMNSLRAEDTAVYYCARVGVWYGMDVWGQGTTVTVSS VL: DIQMTQSPATLSLSAGERATLSCRASQSVNIDVGWYQQKPGQAPRLLIYDASKRATGIPTRFSGSGSGTDFTLTIANLEPEDFAVYYCQQRARWLTFGGGTRLEIKR |
| 18.8 nM | 0.00513 s⁻¹ | 272000 M⁻¹ s⁻¹ | M0137-G10 (Fab, V domains shown) VH: EVQLLESGGGLVQPGGSLRLSCAASGFTFSRYVMHWVRQAPGKGLEWVSYISPSGGVTKYADSVKGRFTISRDNSKNTLYLQMNSLRAEDTAVYYCAKALYPGMGYYYGMDVWGQGTTVTVSS VL: DIQMTQSPSSLSASVGDRVTITCRTSQTVSTFLNWYQQKPGTAPKLLIYAASRLQSGVPSRFSGSGSETDFTLTISRLQPEDFATYYCQQSFTSPRTFGLGTKVEIKR |
| 26.8 nM | 0.00613 s⁻¹ | 229000 M⁻¹ s⁻¹ | M0123-E02 (Fab, V domains shown) VH: EVQLLESGGGLVQPGGSLRLSCAASGFTFSHYRMDWVRQAPGKGLEWVSGIYPSGGHTNYADSVKGRFTISRDNSKNTLYLQMNSLRAEDTAVYYCARDRGWYGADYWGQGTLVTVSS VL: AQSALTQPASVSGSPGQSITISCSGTSSDVGAYYHVSWYQQHPGKAPKLMIYDVSNRPSGVSNRFSGSKSGNTASLTISGLQAEDEADYYCSLYIGTSTPWVFGGGTKLTVLG |

Second part, the binder before the results:

| Binder | Kd | koff | kon |
| --- | --- | --- | --- |
| M0096-D03 (Fab, V domains shown) VH: EVQLLESGGGLVQPGGSLRLSCAASGFTFSHYWMVWVRQAPGKGLEWVSWIGPSGGGTVYADSVKGRFTISRDNSKNTLYLQMNSLRAEDTAVYYCARGNGGFDSWGRGTLVTVSS VL: AQSELTQPRSVSGSPGQSVTISCTGTTRDVGAYKYVSWYQQYPGKAPKLMLSDVSKRPSGVPDRFSGSKSGNTASLTISGLQSEDEADYYCCSFAGSYTWIFGGGTKVTVLG | 28.1 nM | 0.00945 s⁻¹ | 337000 M⁻¹ s⁻¹ |
| M0102-G11 (Fab, V domains shown) VH: EVQLLESGGGLVQPGGSLRLSCAASGFTFSRYMMEWVRQAPGKGLEWVSGISPSGGTTKYADSVKGRFTISRDNSKNTLYLQMNSLRAEDTAVYYCTRGGYNNYYYALDVWGQGTTVTVSS VL: DIQMTQSPDTLSLSPGERATLSCRASESVSSSYFAWYQQKRGQAPRLLIYGASRRVTGIPDRFSGSGSGTDFTLTITRLEPEDFAVYYCQQYGGSPRSFGQGTKVEIKR | 24.8 nM | 0.0116 s⁻¹ | 467000 M⁻¹ s⁻¹ |
| M0117-B07 (Fab, V domains shown) VH: EVQLLESGGGLVQPGGSLRLSCAASGFTFSHYTMWWVRQAPGKGLEWVSRIWPSGGTTRYADSVKGRFTISRDNSKNTLYLQMNSLRAEDTAVYYCARGGSYLAFDIWGQGTMVTVSS VL: DIQMTQSPATLSLSPGERATLSCRASQSVSSYLAWYQQKPGQAPRLLIYDASNRATGIPARFSGSGSGTDFTLTISSLEPEDFAVYYCQQRSNFGGGTKVEIKR | 22.8 nM | 0.00826 s⁻¹ | 362000 M⁻¹ s⁻¹ |
| M0114-E02 (Fab, V domains shown) VH: EVQLLESGGGLVQPGGSLRLSCAASGFTFSHYKMMWVRQAPGKGLEWVSYIYPSGGWTGYADSVKGRFTISRDNSKNTLYLQMNSLRAEDTAVYYCARVGPWDAFDIWGQGTMVTVSS VL: DIQMTQSPATLSLSPGERATLSCRASQSVGGYLAWYQQKPGQAPRLLIYDASKRATGIPARFSGSGSGTDFTLTISSLEPEDFAVYYCQQRSKWPPYTFGQGTKLEIKR | 23.2 nM | 0.00936 s⁻¹ | 403000 M⁻¹ s⁻¹ |
| M0114-F04 (Fab, V domains shown) VH: EVQLLESGGGLVQPGGSLRLSCAASGFTFSHYYMAWVRQAPGKGLEWVSYISPSGGSTKYADSVKGRFTISRDNSKNTLYLQMNSLRAEDTAMYYCARGGGTGTFDIWGQGTMVTVSS VL: AQSELTQPASVSGSPGQSIAISCTGTSSDIGAYPFVSWYQQHPGKAPKLLIYGVTTRPFGVSDRFSGSKSGSTASLTISGLQAEDEADYYCSSYAGGRNLPYVFGTGTTVTVLG | 30.7 nM | 0.0107 s⁻¹ | 348000 M⁻¹ s⁻¹ |
| M0122-A05 (Fab, V domains shown) VH: EVQLLESGGGLVQPGGSLRLSCAASGFTFSHYPMHWVRQAPGKGLEWVSSIWPSGGHTSYADSVKGRFTISRDNSKNTLYLQMNSLRAEDTATYYCARLSQPIWGQGTLVTVSS VL: DIQMTQSPSSFSASTGDRVTITCRASQSISRWLAWYQQKPGKAPKLLIYEASTLESGVPSTFSGSGSGTEFTLTISSLQPDDFATYYCQQYNSYPLTFGGGTKVEIKR | 30.8 nM | 0.00453 s⁻¹ | 147000 M⁻¹ s⁻¹ |
| M0106-E12 (Fab, V domains shown) VH: EVQLLESGGGLVQPGGSLRLSCAASGFTFSHYNMTWVRQAPGKGLEWVSSIWPSGGATRYADSVKGRFTISRDNSKNTLYLQMNSLRAEDTAVYYCARTSRFYGMDVWGQGTTVTVSS VL: DIQMTQSPGTLSLSPGERATLSCRPSQSVYSNYLAWYQQKPGQAPRLLIYGASTRATGIPDRFSGSASGTDFTLTISRLEPEDFAVYYCQQYGNSYTFGPGTKVDIKR | 19.9 nM | 2.44 s⁻¹ | 1.23e+08 M⁻¹ s⁻¹ |
| M0106-C06 (Fab, V domains shown) VH: EVQLLESGGGLVQPGGSLRLSCAASGFTFSHYTMQWVRQAPGKGLEWVSSIYPSGGATKYADSVKGRFTISRDNSKNTLYLQMNSLRAEDTAMYYCARSGYYYGLDVWGQGTTVTVSS VL: DIQMTQSPATLSASVGDRVTITCRASQSVSRWLAWYQQKPGKAPKLLIYKASTLESGVPSRFSGSGSGTEFTLTISSLQPDDFATYYCQQYGAFGQGTKVEIRR | 22.6 nM | 0.0142 s⁻¹ | 628000 M⁻¹ s⁻¹ |
| M0093-G09 (Fab, V domains shown) VH: EVQLLESGGGLVQPGGSLRLSCAASGFTFSWYSMTWVRQAPGKGLEWVSSISPSGGATKYADSVKGRFTISRDNSKNTLYLQMNSLRAEDTAVYYCARGGAASLPFDYWGQGTLVTVSS VL: DIQMTQSPSSLSASVGDRVTITCRASQSISSFLNWYQQKPGKAPKLLLMYAASSLQSGVPSRFSGSGSGTDFTLTISSLQPEDFATYYCQQSYSTPYTFGQGTKLEIKR | 23 nM | 0.0105 s⁻¹ | 458000 M⁻¹ s⁻¹ |
| M0093-C10 (Fab, V domains shown) VH: EVQLLESGGGLVQPGGSLRLSCAASGFTFSRYTMEWVRQAPGKGLEWVSVIRPSGGTTMYADSVKGRFTISRDNSKNTLYLQMNSLRAEDMAVYYCARVGVWYGMDVWGQGTTVTVSS VL: DIQITQSPSSLSASVGDRVTITCRASQGISNYLAWYQQKPGKVPKLLIYAASTLQSGVPSRFSGSGSGTDFTLTISSLQPEDFATYYCEQLNSFPHAFGQGTKVEIKR | 22.6 nM | 0.00752 s⁻¹ | 333000 M⁻¹ s⁻¹ |
| M0102-H02 (Fab, V domains shown) VH: EVQLLESGGGLVQPGGSLRLSCAASGFTFSMYRMFWVRQAPGKGLEWVSVIGPSGGQTAYADSVKGRFTISRDNSKNTLYLQMNSLRAEDTAVYYCARVGVWYGMDVWGQGTTVTVSS VL: DIQMTQSPATLSLSPGERAALSCRASQSVSNFLAWYQQKPGQAPRLLIYGASNRATDIPARFSGSGSGTDFTLTISSLEPEDFATYYCQQANSFPLTFGGGTKVEIKR | 30.8 nM | 0.0105 s⁻¹ | 340000 M⁻¹ s⁻¹ |
| M0095-G09 (Fab, V domains shown) VH: EVQLLESGGGLVQPGGSLRLSCAASGFTFSNYNMHWVRQAPGKGLEWVSVIYPSGGYTVYADSVKGRFTISRDNSKNTLYLQMNSLRAEDTAVYYCARRGNWGGIDYWGQGTLVTVSS VL: DIQMTQSPSSLSASVGDRVTITCRASQSISNWLAWYQQKPGKAPKLLIYKASTLQTGVPSRFSGSGSGTEFSLTISSLQPDDFATYYCQQTYSAPFNFGPGTKVDIKR | 18.6 nM | 0.0934 s⁻¹ | 5.01e+06 M⁻¹ s⁻¹ |
| M0094-D08 (Fab, V domains shown) VH: EVQLLESGGGLVQPGGSLRLSCAASGFTFSHYLMVWVRQAPGKGLEWVSGIVPSGGYTMYADSVKGRFTISRDNSKNTLYLQMNSLRAEDTAVYYCTRASYSSFGLDYWGQGTLVTVSS VL: not shown | 29.8 nM | 0.00707 s⁻¹ | 237000 M⁻¹ s⁻¹ |
